{
  "source": "the RNAGym collection of RNA variant scans (doi:10.1093/molbev/msab373)",
  "parents": {"B1": {"name": "Azoarcus group I ribozyme (parent)", "chain": "GUGCCUUGCGCCGGGAAACCACGCAAGGGAUGGUGUCAAAUUCGGCGAAACCUAAGCGCCCGCCCGGGCGUAUGGCAACGCCGAGCCAAGCUUCGGCGCCUGCGCCGAUGAAGGUGUAGAGACUAGACGGCACCCACCUAAGGCAAACGCUAUGGUGAAGGCAUAGUCCAGGGAGUGGCGAAAGUCACACAAACCGG"}},
  "data": [
    {"variants_of": "B1", "assay": "reverse-splicing fitness (ratio to wild type); higher = more active; in vitro selection; Mg2+ level not given", "method_in_brief": "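An in vitro group I ribozyme library with randomized positions was T7-transcribed and gel-purified. In triplicate, 10 pmol RNA in EPPS pH 7.5 was reacted with 50 pmoles of a 30-nt RNA substrate for 1 h at 37 °C across several added MgCl2 levels (1–48 mM), then stopped with EDTA. Products were reverse transcribed from a substrate-complementary primer, PCR-amplified and sequenced (HiSeq 4000). Fitness is a variant's read proportion after selection over that before, normalised to wild type.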", "values": [
      {"variant": "C82G A111C A120G A145C C150G C169G", "reverse-splicing fitness": 0.00722},
      {"variant": "C82G A111C A120G A145C C150G C169A", "reverse-splicing fitness": 0.0084},
      {"variant": "C82G A111C A120G A145U C150A C169G U176C", "reverse-splicing fitness": 0.0153},
      {"variant": "C82G A111C A120G A145U C150A C169G U176G", "reverse-splicing fitness": 0.00522},
      {"variant": "C82G A111C A120G A145U C150A C169G U176A", "reverse-splicing fitness": 0.0126},
      {"variant": "C82G A111C A120U A145C C150A U176C", "reverse-splicing fitness": 0.00361},
      {"variant": "C82G A111C A120U A145C C150A U176A", "reverse-splicing fitness": 0.00374},
      {"variant": "C82G A111C A120U A145C C150A U176G", "reverse-splicing fitness": 0.00247},
      {"variant": "C82G A111C A120G C150A U176C", "reverse-splicing fitness": 0.0193},
      {"variant": "C82G A111C A120G C150A U176G", "reverse-splicing fitness": 0.0081},
      {"variant": "C82G A111C A120G C150A U176A", "reverse-splicing fitness": 0.014},
      {"variant": "C82G A111C A120C C150U C169G", "reverse-splicing fitness": 0.00825},
      {"variant": "C82G A111C A120C C150U C169U", "reverse-splicing fitness": 0.0139},
      {"variant": "C82G A111C A120C C150U C169A", "reverse-splicing fitness": 0.0099},
      {"variant": "C82G A111C A120G A145U C150U C169G U176A", "reverse-splicing fitness": 0.0127},
      {"variant": "C82G A111C A120G A145U C150U C169G U176G", "reverse-splicing fitness": 0.00519},
      {"variant": "C82G A111C A120G A145U C150U C169G U176C", "reverse-splicing fitness": 0.0134},
      {"variant": "C82G A111C A120G U176A", "reverse-splicing fitness": 0.0162},
      {"variant": "C82G A111C A120G U176C", "reverse-splicing fitness": 0.0226},
      {"variant": "C82G A111C A120G U176G", "reverse-splicing fitness": 0.00753},
      {"variant": "C82G A111C A120G C150G C169A U176C", "reverse-splicing fitness": 0.0102},
      {"variant": "C82G A111C A120G C150G C169A U176A", "reverse-splicing fitness": 0.00915},
      {"variant": "C82G A111C A120G C150G C169A U176G", "reverse-splicing fitness": 0.00686},
      {"variant": "C82G A111C A120G A145C C150G C169U U176G", "reverse-splicing fitness": 0.00513},
      {"variant": "C82G A111C A120G A145C C150G C169U U176C", "reverse-splicing fitness": 0.0124},
      {"variant": "C82G A111C A120G A145C C150G C169U U176A", "reverse-splicing fitness": 0.00907},
      {"variant": "C82G A111C A120G C150U C169A", "reverse-splicing fitness": 0.0111},
      {"variant": "C82G A111C A120G C150U C169G", "reverse-splicing fitness": 0.0113},
      {"variant": "C82G A111C A120G C150U C169U", "reverse-splicing fitness": 0.00939},
      {"variant": "C82G A111C A120G A145G", "reverse-splicing fitness": 0.014},
      {"variant": "C82G A111C A120G A145U", "reverse-splicing fitness": 0.0164},
      {"variant": "C82G A111C A120G A145C", "reverse-splicing fitness": 0.013},
      {"variant": "C82G A111C A120C C150G C169A U176C", "reverse-splicing fitness": 0.0137},
      {"variant": "C82G A111C A120C C150G C169A U176G", "reverse-splicing fitness": 0.00619},
      {"variant": "C82G A111C A120G A145U C150G U176C", "reverse-splicing fitness": 0.015},
      {"variant": "C82G A111C A120G A145U C150G U176A", "reverse-splicing fitness": 0.00814},
      {"variant": "C82G A111C A120G A145U C150G U176G", "reverse-splicing fitness": 0.00375},
      {"variant": "C82G A111C A120G A145G C150U C169U", "reverse-splicing fitness": 0.011},
      {"variant": "C82G A111C A120G A145G C150U C169G", "reverse-splicing fitness": 0.0134},
      {"variant": "C82G A111C A120G A145G C150U C169A", "reverse-splicing fitness": 0.0112},
      {"variant": "C82G A111C A120G A145U C150G C169G", "reverse-splicing fitness": 0.00781},
      {"variant": "C82G A111C A120G A145U C150G C169A", "reverse-splicing fitness": 0.00965},
      {"variant": "C82G A111C A120G A145U C150G C169U", "reverse-splicing fitness": 0.0085},
      {"variant": "C82G A111C A120G", "reverse-splicing fitness": 0.0185},
      {"variant": "C82G A111C A120U", "reverse-splicing fitness": 0.0509},
      {"variant": "C82G A111C A120G A145U C150A U176G", "reverse-splicing fitness": 0.00582},
      {"variant": "C82G A111C A120G A145U C150A U176A", "reverse-splicing fitness": 0.0121},
      {"variant": "C82G A111C A120G A145U C150A U176C", "reverse-splicing fitness": 0.0172},
      {"variant": "C82G A111C A120G A145C C169A U176G", "reverse-splicing fitness": 0.00477},
      {"variant": "C82G A111C A120G A145C C169A U176A", "reverse-splicing fitness": 0.0138},
      {"variant": "C82G A111C A120G A145C C169A U176C", "reverse-splicing fitness": 0.00939},
      {"variant": "C82G A111C A120G C150U C169U U176C", "reverse-splicing fitness": 0.0156},
      {"variant": "C82G A111C A120G C150U C169U U176A", "reverse-splicing fitness": 0.0146},
      {"variant": "C82G A111C A120G C150U C169U U176G", "reverse-splicing fitness": 0.00546},
      {"variant": "C82G A111C A120G C150A C169U", "reverse-splicing fitness": 0.00859},
      {"variant": "C82G A111C A120G C150A C169G", "reverse-splicing fitness": 0.00935},
      {"variant": "C82G A111C A120G C150A C169A", "reverse-splicing fitness": 0.0116},
      {"variant": "C82G A111C A120G C150U C169G U176A", "reverse-splicing fitness": 0.0141},
      {"variant": "C82G A111C A120G C150U C169G U176G", "reverse-splicing fitness": 0.00537},
      {"variant": "C82G A111C A120G C150U C169G U176C", "reverse-splicing fitness": 0.0187},
      {"variant": "C82G A111C A120C C150G U176A", "reverse-splicing fitness": 0.00574},
      {"variant": "C82G A111C A120C C150G U176C", "reverse-splicing fitness": 0.00847},
      {"variant": "C82G A111C A120C C150G U176G", "reverse-splicing fitness": 0.00427},
      {"variant": "C82G A111C A120G A145C C150U C169A U176C", "reverse-splicing fitness": 0.00666},
      {"variant": "C82G A111C A120G A145C C150U C169A U176G", "reverse-splicing fitness": 0.00557},
      {"variant": "C82G A111C A120G A145C C150U C169A U176A", "reverse-splicing fitness": 0.0113},
      {"variant": "C82G A111C A120G A145G C150G C169U U176G", "reverse-splicing fitness": 0.00731},
      {"variant": "C82G A111C A120G A145G C150G C169U U176C", "reverse-splicing fitness": 0.0127},
      {"variant": "C82G A111C A120G A145G C150G C169U U176A", "reverse-splicing fitness": 0.0106},
      {"variant": "C82G A111C A120G A145G C150A U176A", "reverse-splicing fitness": 0.00974},
      {"variant": "C82G A111C A120G A145G C150A U176G", "reverse-splicing fitness": 0.007},
      {"variant": "C82G A111C A120G A145G C150A U176C", "reverse-splicing fitness": 0.0185},
      {"variant": "C82G A111C A120G A145U C150A C169A U176C", "reverse-splicing fitness": 0.0105},
      {"variant": "C82G A111C A120G A145U C150A C169A U176G", "reverse-splicing fitness": 0.00581},
      {"variant": "C82G A111C A120G A145U C150A C169A U176A", "reverse-splicing fitness": 0.0128},
      {"variant": "C82G A111C A120C C169G U176A", "reverse-splicing fitness": 0.0161},
      {"variant": "C82G A111C A120C C169G U176G", "reverse-splicing fitness": 0.00714},
      {"variant": "C82G A111C A120C C169G U176C", "reverse-splicing fitness": 0.0206},
      {"variant": "C82G A111C A120C C150U C169A U176A", "reverse-splicing fitness": 0.0126},
      {"variant": "C82G A111C A120C C150U C169A U176G", "reverse-splicing fitness": 0.00909},
      {"variant": "C82G A111C A120C C150U C169A U176C", "reverse-splicing fitness": 0.0129},
      {"variant": "C82G A111C A120G A145U C169G", "reverse-splicing fitness": 0.0132},
      {"variant": "C82G A111C A120G A145U C169U", "reverse-splicing fitness": 0.0104},
      {"variant": "C82G A111C A120G A145U C169A", "reverse-splicing fitness": 0.00975}
    ]}
  ]
}
